Assay results from paper doi:10.1101/2025.10.16.681972 (bioRxiv, 2025).

Target: recombinant soluble form (ectodomain) of human MERTK (Homo sapiens, UniProt Q12866)
Experiment: SPR

Sequence of recombinant soluble form (ectodomain) of human MERTK (Q12866 21-505): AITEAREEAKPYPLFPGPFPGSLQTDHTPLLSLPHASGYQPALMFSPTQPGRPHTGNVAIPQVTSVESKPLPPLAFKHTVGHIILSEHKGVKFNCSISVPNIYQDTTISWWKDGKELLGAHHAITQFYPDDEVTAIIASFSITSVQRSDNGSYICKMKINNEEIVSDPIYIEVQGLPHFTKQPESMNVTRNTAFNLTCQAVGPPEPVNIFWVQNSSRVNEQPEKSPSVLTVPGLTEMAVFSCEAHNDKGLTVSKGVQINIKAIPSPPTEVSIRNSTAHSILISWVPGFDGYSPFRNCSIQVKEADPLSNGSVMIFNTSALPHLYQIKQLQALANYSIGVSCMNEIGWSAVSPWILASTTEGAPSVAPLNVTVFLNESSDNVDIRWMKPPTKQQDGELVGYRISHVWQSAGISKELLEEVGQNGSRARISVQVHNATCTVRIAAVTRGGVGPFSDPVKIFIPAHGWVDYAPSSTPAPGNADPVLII

binding result: binds
B1: recombinant mAb745 (anti-MERTK, variable regions of mAb745 on human IgG1 and kappa constant regions) (antibody, V domains shown)
VH: DVQIQESGPGLVKSSQSLSLTCTVTGYSITNDYAWNWIRQFPGNKLEWMGYISYNGNTFYNPSLKSRISITRDTSKNQFFLQLSSVTTEDTATYYCGRLLPVSYAMDYWGQGTSVTVSS
VL: DVVMTQTPLSLPVSLGDQASISCRSSQSLVHSNGNTYLHWYLQKPGQSPKLLIYKVSNRFSGVPDRFSGSGSGTDFTLKISRVEAEDLGVYFCYQSTHVPWTFGGGTKLEIK
